Experimental data: patent US10925971B2, “Methods of treating PRLR positive breast cancer” (Regeneron Pharmaceuticals, Inc., priority 2016, dated 2021)

System: TM00107 PDX tumors
Assay: TM00107 patient derived xenograft (PDX) breast cancer model, tumor volume
Assay type: in vivo, NOD SCID gamma (NSG) mice
Protocol: Efficacy of H1H6958N2-DM1 was also assessed in a patient derived xenograft (PDX) model of breast cancer that may better represent the response in patients. NOD SCID gamma (NSG) mice bearing tumor fragments of the TM00107 PDX breast cancer tumor were sourced from The Jackson Laboratories. The TM00107 PDX model was derived from an ER+/−/PR−/HER2− metastatic breast adenocarcinoma. PRLR expression was confirmed by microarray analysis and immunohistochemistry on tumor sample slides provided by The Jackson Laboratory (data not shown). When tumors were an average volume of ˜400-600 mm^3 (21 days post implantation), mice were randomized into treatment groups (n=7 mice/group) and were administered H1H6958N2-DM1, control ADC, or vehicle control by intravenous injection once weekly for a total of 4 weeks. A separate treatment group was administered paclitaxel by intravenous injection every 4 days for a total of 4 doses.

B1: H1H6958N2-DM1: anti-PRLR antibody H1H6958N2 conjugated to the maytansinoid DM1 through an SMCC linker (conjugate)
VH: QVQLVESGGGVVQPGRSLRLSCGASGFTFRNYGMQWVRQGPGKGLEWVTLISFDGNDKYYADSVKGRFTISRDNSKNTLFLQMNSLRTEDTAVYYCARGGDFDYWGQGTLVTVSS
VL: DIQMTQSPSSLSASVGDRVTITCRASQDIRKDLGWYQQKPGKAPKRLIYAASSLHSGVPSRFSGSGSGTEFTLTISSLQPEDFATYYCLQHNSYPMYTFGQGTKLEIK
average tumor volume (10 mg/kg once weekly, day 30, compared to vehicle): no significant difference in average tumor volume
average tumor volumes (20 mg/kg once weekly, day 30, compared to 20 mg/kg control ADC): moderate but significant (p<0.01) decrease
